The nature of this series: 14C assay with IPTG-induced recombinant E. coli cells (14CO2 capture from [14C]-carboxyl-labeled dicamba). Conditions: for Dicamba Decarboxylase Activity: IPTG-induced recombinant E. coli cells, [14C]-carboxyl-labeled dicamba, 14CO2 capture; for Enzymatic Detection level: dicamba decarboxylation activity of the protein of the given SEQ ID NO.

B1: 71 (protein, listed as Burkholderia dolosa)
chain: MARAGHRAARTRQSRPGDRTMTCSCCMSAGRRRVLGAFAALAGAPKGPRAASAAQPAAASKPTRGDATARNRHSRALLPGKASASWSATKASGSGGAFAWDDTTFTFRTPAGGLGPLPMKFIDVDARLRDMDASGVDVQALSLSVPMAYWGDRPFNAKLARAWNTAASRVHVRAPDRFVVLATLPMLDATDAIDELERASELPGVRGVYMGTNIDNRDLDDPRFAPVFARIEQLGLPVFLHPQQTVGGARLGDFYLSNLLGNPFDTAIAASHLILGGVLDRHPALHFTLPHAGGALPILVGRLDAGWTVRAETRRLAHQPSGYLRRFSYDTVSHSGPVLNFLIENVGIDRLVLGSDYCFDMGYEQPVRFLDRLDLTPDERAMVIGGNAGRLLRI
As for B1, the “Dicamba Decarboxylase Activity” value was “Low” and the “Enzymatic Detection level” value is recorded as “Low”.

B2: 70 (protein, listed as Alicyclobacillus acidocaldarius)
chain: MAIEPNRAADVHTHFLPTEVLEFLKREPRIQVDLERRAPDKEPFLTVEGRWSFELKRMFVDFEAFASAYRQAGIGLALVSPLPQLFVYHLPAEMGAQVAEVYNDALRDVLAPHRERFRPLATLPLADPTAAARELERRMDEGFVGAIVGPGVGEALIGDEAFWPLWEVADARRAVLFLHPLLHADPRAARLMLPNLVGVPWETTLAAAHLVLSGLLDRYPGARVLLAHGGGFLPYQIGRIEQGYDVWPQVRGRLQDRPTAYLRRMFYDNVLWSDAALRCLIDVVGADRVLAGSDFPFDLSAWPPRPGADVSVLAGGSGREGRLS
On to B2, for which the “Dicamba Decarboxylase Activity” value is “Low” and the “Enzymatic Detection level” value was “Low”.

B3: 68 (protein, listed as Hoeflea phototrophica)
chain: MAIIDAHTHTLCPAVNEKVAGTIKPDSVPYQRDMSPESKEQDHTQFPELKIMFNQVERRLADMARMGIDRQVIAPAPGQQHYWAEPKLLAEISALQNDHVAELVARAPDRFAGIGTLPMTDPDAAVAEITRATRELGLRVFQIDSRVMERELSDASLDPIYAALEAAGAGLMIHPLGFSNGERLTPFFMVNSVAQPLEELLAFNHLVFGGVLDRFPKLKVYIAHGGGFAPFYIGRFDHAWKVRPEVNRLTPSAPSTYLRRIYFDTCVYRTDHIETLVRTVGADRVMLGSDYPFDMGDTDPLGLLNACQGLSDDEKATISSKVAIDFFGLET
Consider B3, for which the “Dicamba Decarboxylase Activity” value is given as “No” and the “Enzymatic Detection level” value is “No”.

B4: 5 (protein, listed as Staphylococcus aureus)
chain: MAQNNMEANQMKSITFEEHYVIEDIQKETMNAISADPKGVPMKVMLEGLEKKTGFTNADELSHHDERIQFMNNQDVQIQVLSYGNGSPSNLVGQKAIELCQKANDQLANYIAQYPNRFVGFATLPINEPEAAAREFERCINDLGFKGALIMGRAQDGFLDQDKYDIIFKTAENLGVPIYLHPAPVNSDIYQSYYKGNYPEVTAATFACFGYGWHIDVGIHAIHLVLSGIFDRYPKLNMIIGHWGEFIPFFLERMDEALFAEHLNHPVSYYFKNNFYITPSGMLTKPQFDLVKKEAGIDRILYAADYPYIEPEKLGVFLDELGLTDEEKEKISYTNGAKLLGLSSNN
For B4, the “Dicamba Decarboxylase Activity” value was “High” and the “Enzymatic Detection level” value is given as “High”.

B5: 69 (protein, listed as Microbacterium testaceum)
chain: MATSTEGQDVTDVHAHLLMPGLHAEVERRVPDEVQAAADLELRRNGLASLQASGRMIGERFPRLTDVRARLAAMDEQGVDRQWVSPSPNHFYPWANEGLATWASGEANRLIAEHVALAPDRLVGLGVVPLQHPHLVVDALDDAVLGRGLAGVEISSFAGDVELSDERLESFWARAAELRAVVFLHPFGCSLDERLDRFYLSNTVGQPTENAVALSHLIFSGVLDRHPGLRLIAAHGGGYLPTAIGRSDRAWRVRPEARGCAHAPSTYLSKLWFDTVVHDERALRWLVEAAGADRVLLGSDFPFDMGLDDPVAFVRGAGLQDAEVSGILGGNAAELLRTRVHA
Regarding B5, the “Dicamba Decarboxylase Activity” value is “No” and the “Enzymatic Detection level” value is “No”.

Source of the values: US20140287419A1, “Compositions Having Dicamba Decarboxylase Activity and Methods of Use” (priority 2013, published 2014).
